One molecule from PMC11996608 (Nature structural & molecular biology, 2025) can be followed below.

Assay [1] deals with Eco RNAP β subunit (Escherichia coli, UniProt P0A8V2 1-1342). Kind of assay: cryo-EM structure.
The target in assay [2] is Eco RNAP β' subunit (β'-PPX-His10) (Escherichia coli, UniProt P0A8T7 1-1407). Kind of assay: cryo-EM structure.
Sequence of Eco RNAP β' subunit (β'-PPX-His10) (P0A8T7 whole entry): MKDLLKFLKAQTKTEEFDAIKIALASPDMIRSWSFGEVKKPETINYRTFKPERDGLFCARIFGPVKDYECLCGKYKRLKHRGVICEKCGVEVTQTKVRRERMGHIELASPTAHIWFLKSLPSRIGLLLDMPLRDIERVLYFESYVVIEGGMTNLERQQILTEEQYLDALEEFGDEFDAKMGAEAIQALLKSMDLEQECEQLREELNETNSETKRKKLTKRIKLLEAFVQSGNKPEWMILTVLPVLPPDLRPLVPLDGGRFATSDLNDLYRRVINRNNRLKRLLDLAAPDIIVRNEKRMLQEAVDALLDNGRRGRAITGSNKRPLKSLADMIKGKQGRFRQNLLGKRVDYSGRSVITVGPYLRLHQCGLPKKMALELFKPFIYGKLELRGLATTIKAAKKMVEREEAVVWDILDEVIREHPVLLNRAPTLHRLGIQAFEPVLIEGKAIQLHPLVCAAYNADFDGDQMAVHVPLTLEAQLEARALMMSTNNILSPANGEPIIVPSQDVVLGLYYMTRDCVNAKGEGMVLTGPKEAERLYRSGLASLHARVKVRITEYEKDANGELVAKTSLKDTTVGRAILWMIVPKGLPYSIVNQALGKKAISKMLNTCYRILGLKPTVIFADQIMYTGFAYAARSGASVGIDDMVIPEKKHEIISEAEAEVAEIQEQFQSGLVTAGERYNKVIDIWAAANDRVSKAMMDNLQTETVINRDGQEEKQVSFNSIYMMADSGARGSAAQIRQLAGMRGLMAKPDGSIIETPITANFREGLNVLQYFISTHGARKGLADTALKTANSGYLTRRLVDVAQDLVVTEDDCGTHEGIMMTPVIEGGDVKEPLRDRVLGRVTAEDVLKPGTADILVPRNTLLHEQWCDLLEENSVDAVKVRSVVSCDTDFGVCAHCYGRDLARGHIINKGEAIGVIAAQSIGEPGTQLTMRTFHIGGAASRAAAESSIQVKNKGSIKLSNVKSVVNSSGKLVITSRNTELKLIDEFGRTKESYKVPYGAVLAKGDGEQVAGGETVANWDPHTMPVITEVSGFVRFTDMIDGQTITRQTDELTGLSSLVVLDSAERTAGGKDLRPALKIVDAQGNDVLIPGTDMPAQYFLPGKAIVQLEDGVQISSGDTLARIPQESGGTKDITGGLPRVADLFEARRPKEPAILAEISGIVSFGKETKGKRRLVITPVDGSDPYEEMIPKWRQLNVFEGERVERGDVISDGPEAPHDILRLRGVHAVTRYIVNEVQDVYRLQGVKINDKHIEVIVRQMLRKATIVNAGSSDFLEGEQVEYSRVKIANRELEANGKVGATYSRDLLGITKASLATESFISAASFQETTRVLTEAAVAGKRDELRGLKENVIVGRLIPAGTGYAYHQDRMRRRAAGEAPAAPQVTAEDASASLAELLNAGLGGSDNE

Sequence of Eco RNAP β subunit (P0A8V2 whole entry): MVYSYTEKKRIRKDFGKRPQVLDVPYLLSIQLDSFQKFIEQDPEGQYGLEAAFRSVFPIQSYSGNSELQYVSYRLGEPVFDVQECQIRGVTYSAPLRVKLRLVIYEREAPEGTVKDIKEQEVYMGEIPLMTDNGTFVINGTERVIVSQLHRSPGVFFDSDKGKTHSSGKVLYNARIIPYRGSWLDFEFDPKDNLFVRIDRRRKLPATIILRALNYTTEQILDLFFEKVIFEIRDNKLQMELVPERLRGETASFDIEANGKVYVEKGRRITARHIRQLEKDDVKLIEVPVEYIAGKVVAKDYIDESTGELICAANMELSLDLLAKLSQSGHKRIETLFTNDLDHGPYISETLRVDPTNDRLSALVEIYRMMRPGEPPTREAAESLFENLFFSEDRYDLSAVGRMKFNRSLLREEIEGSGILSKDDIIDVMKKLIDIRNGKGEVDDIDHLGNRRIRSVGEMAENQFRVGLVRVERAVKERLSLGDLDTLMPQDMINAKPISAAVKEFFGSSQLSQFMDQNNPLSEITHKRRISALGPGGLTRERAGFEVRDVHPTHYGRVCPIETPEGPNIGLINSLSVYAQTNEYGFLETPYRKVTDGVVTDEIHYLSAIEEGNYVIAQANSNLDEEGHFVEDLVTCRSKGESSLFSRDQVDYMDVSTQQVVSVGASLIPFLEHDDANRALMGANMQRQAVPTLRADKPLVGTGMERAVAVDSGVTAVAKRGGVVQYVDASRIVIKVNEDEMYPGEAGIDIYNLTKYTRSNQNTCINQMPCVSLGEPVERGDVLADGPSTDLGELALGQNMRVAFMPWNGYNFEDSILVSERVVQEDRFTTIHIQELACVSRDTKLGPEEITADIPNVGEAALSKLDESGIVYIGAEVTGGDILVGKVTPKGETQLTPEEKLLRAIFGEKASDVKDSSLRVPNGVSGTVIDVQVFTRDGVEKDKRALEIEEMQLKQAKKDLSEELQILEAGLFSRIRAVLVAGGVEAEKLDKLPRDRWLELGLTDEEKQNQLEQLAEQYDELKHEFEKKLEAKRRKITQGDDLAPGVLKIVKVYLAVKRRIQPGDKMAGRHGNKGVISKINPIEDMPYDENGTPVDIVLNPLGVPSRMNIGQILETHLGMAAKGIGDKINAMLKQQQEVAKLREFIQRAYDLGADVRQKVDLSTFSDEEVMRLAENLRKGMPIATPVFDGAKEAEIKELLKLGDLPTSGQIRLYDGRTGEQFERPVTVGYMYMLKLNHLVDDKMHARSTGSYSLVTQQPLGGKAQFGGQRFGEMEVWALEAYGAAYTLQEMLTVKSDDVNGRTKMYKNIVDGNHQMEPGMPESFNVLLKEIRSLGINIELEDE

B1: Eco RapA (N-terminally His6-tagged full-length RapA) (enzyme, Escherichia coli, UniProt P60240 1-968, looked up)
chain: MPFTLGQRWISDTESELGLGTVVAVDARTVTLLFPSTGENRLYARSDSPVTRVMFNPGDTITSHDGWQMQVEEVKEENGLLTYIGTRLDTEESGVALREVFLDSKLVFSKPQDRLFAGQIDRMDRFALRYRARKYSSEQFRMPYSGLRGQRTSLIPHQLNIAHDVGRRHAPRVLLADEVGLGKTIEAGMILHQQLLSGAAERVLIIVPETLQHQWLVEMLRRFNLRFALFDDERYAEAQHDAYNPFDTEQLVICSLDFARRSKQRLEHLCEAEWDLLVVDEAHHLVWSEDAPSREYQAIEQLAEHVPGVLLLTATPEQLGMESHFARLRLLDPNRFHDFAQFVEEQKNYRPVADAVAMLLAGNKLSNDELNMLGEMIGEQDIEPLLQAANSDSEDAQSARQELVSMLMDRHGTSRVLFRNTRNGVKGFPKRELHTIKLPLPTQYQTAIKVSGIMGARKSAEDRARDMLYPERIYQEFEGDNATWWNFDPRVEWLMGYLTSHRSQKVLVICAKAATALQLEQVLREREGIRAAVFHEGMSIIERDRAAAWFAEEDTGAQVLLCSEIGSEGRNFQFASHMVMFDLPFNPDLLEQRIGRLDRIGQAHDIQIHVPYLEKTAQSVLVRWYHEGLDAFEHTCPTGRTIYDSVYNDLINYLASPDQTEGFDDLIKNCREQHEALKAQLEQGRDRLLEIHSNGGEKAQALAESIEEQDDDTNLIAFAMNLFDIIGINQDDRGDNMIVLTPSDHMLVPDFPGLSEDGITITFDREVALAREDAQFITWEHPLIRNGLDLILSGDTGSSTISLLKNKALPVGTLLVELIYVVEAQAPKQLQLNRFLPPTPVRMLLDKNGNNLAAQVEFETFNRQLNAVNRHTGSKLVNAVQQDVHAILQLGEAQIEKSARALIDAARNEADEKLSAELSRLEALRAVNPNIRDDELTAIESNRQQVMESLDQAGWRLDALRLIVVTHQ
With B1, the binding result in assay [1] and in assay [2] was “binds” throughout.
